Data reported in article PMC12628836, “Lactobacillus rhamnosus YQ001 binds with GII.4 human noroviruses and inhibits viral replication in zebrafish larvae” (Applied and Environmental Microbiology, 2025).

Molecular target: recombinant C2JX39 (DNA topoisomerase 4 subunit A) (Lactobacillus rhamnosus YQ001)
Assay: ELISA; attachment factors coated at 280.0 pmol/mL in carbonate-bicarbonate buffer overnight at 4 C, blocked with 1.0% BSA; P protein (GI.1 or GII.4) 10.0 ug/mL, 1 h at 37 C; detected with anti-HuNoV monoclonal antibodies; positive when S/N >= 2.0
Conditions: both partners purified

B1: GII.4 HuNoV P protein (domain or fragment)
chain: KPFTVPILTVEEMTNSRFPIPLEKLFTGPSGAFVVQPQNGRCTTDGVLLGTTQLSPVNICTFRGDVTHIAGSRNYTMNLASLNWNNYDPTEEIPAPLGTPDFVGKIQGLLTQTTKGDGSTRGHKATVYTGSAPFTPKLGSVQFSTDTENDFETHQNTKFTPVGVIQDGSTTHRNEPQQWVLPSYSGRNVHNVHLAPAVAPTFPGEQLLFFRSTMPGCSGYPNMDLDCLLPQEWVQHFYQEAAPAQSDVALLRFVNPDTGRVLFECKLHKSGYVTVAHTGQHDLVIPPNGYFRFDSWVNQFYTLAPM
Question: With B1 as the binder, how does the S/N ratio read?
Answer: Its S/N ratio is 16.9.
